Values quoted from earlier work, collected in patent US10064909B2, “Compositions and methods for chronic use of a weight-gaining compound” (priority 2015, dated 2018).
Ends that are not written are not given here.

Settings: in vivo; cited from earlier work

For “Ghrelin: hormone produced predominantly in the glandular stomach; endogenous ligand of the ghrelin receptor (GHS-R) (GSSFLSPEHQRVQQRKESKKPPAKLQPR; ends and bridges not checked; UniProt Q9UBU3 24-51, looked up)”, the “half-life in the blood” value is listed as “approximately ten minutes”.
